Data set [1] has as its system 50:50 coculture of Caco-2:HT29-MTX cells.
Data set [2] deals with Sprague-Dawley rats. Description: Blood glucose response after subcutaneous administration. The note with it: subcutaneous 1 IU/kg, fasted Sprague-Dawley rats, Fig. 7. Format: in vivo, rat.
Data set [3] concerns Sprague-Dawley rats. In words: Blood glucose response after intestinal closed-loop. The class given is in vivo, rat.
The conditions of data set [4]: rat, in vivo.

For the substance “5KPI: bovine insulin conjugated with 5000 da PEG via PEG nitrophenyl carbonate”, in data set [1], the “Papp × 10^−9 (cm/s)” value is reported as 2.44 ± 0.06 × 10^−9 cm/s. Besides, in data set [2], the “effect on blood glucose level” value was “least effect of the PEGylated insulin samples on blood glucose levels”.

As for “2KPI: bovine insulin conjugated with 2000 da PEG via PEG nitrophenyl carbonate, 1:1, at LysB29”, the “Papp × 10^−9 (cm/s)” value in data set [1] is listed as 2.90 ± 0.86 × 10^−9 cm/s. The “increase of the pharmacological availability over insulin” value in data set [3] (50 IU/kg to the small intestine, rat) was 2.8 times.

Regarding “1KPI: bovine insulin conjugated with 1000 da PEG via PEG nitrophenyl carbonate”, the “Papp × 10^−9 (cm/s)” value in data set [1] is 3.28 ± 0.88 × 10^−9 cm/s. Besides, in data set [2], the “effect on blood glucose level” value is recorded as “effective at reducing the glucose levels below baseline throughout the testing period”.

Broadly, the AUC is concentration integrated over time. A higher AUC goes with high exposure. Bovine insulin: in data set [4], the “AUC” value is 12610 ± 9850 ng·h/mL and the “BA (%)” value came out at 1.064 ± 0.83%. In addition, in data set [3] (50 IU/kg delivered directly to the ileum, Fig. 8), the “effect on blood glucose level” value is recorded as “limited hypoglycemic response”. Moreover, the “effect on blood glucose level” value in data set [2] was “effective at reducing the glucose levels below baseline throughout the testing period”.

(Values after paper PMC13619113 (Journal of controlled release : official journal of the …, 2023).)
